Experimental data: patent publication US20180071413A1 (INSERM INSTITUT NATIONAL DE LA SANTE ET DE LA RECHERCHE …, published 2018)

Key:
human PD-L1 [1] = target: T1, human PD-L1 (human, UniProt Q9NZQ7 19-290); assay: Scatchard analysis on cells, 4 h on ice, 3-3000 pM ^111In-PD-L1.3.1, non-specific binding determined with 100 nM unlabeled antibody; 111In-labeled antibody, Scatchard analysis; MDA-MB-231 cells by paragraph 130
T1 construct: whole, on cells; Target presented on human breast cancer cell lines; The quantitative assays (IRF, IC50, Kd) used MDA-MB-231 cells; also called CD274; Programmed Cell Death 1 Ligand 1
T1 sequence (Q9NZQ7 19-290): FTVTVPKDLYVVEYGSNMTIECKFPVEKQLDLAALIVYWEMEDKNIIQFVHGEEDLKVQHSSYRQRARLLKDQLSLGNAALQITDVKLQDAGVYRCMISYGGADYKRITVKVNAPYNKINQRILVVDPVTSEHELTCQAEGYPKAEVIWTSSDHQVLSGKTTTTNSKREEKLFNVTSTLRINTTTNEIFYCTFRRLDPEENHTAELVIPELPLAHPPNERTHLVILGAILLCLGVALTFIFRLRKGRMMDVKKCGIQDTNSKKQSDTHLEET
Procedure: (§1) Cells were cultured to confluency in six-well plates and were incubated for 4 h on ice with increasing concentrations ¹¹¹In-PD-L1.3.1 (3-3000 pM) in 1 ml RPMI1640 containing 0.5% BSA. Non-specific binding was determined by co-incubation with 100 nM PD-L1.3.1. After incubation, cells were washed with PBS and the cell-associated activity was measured in a shielded well-type gamma counter. The specific binding (total binding—nonspecific binding) was plotted against the bound/free ratio. Data were analyzed by linear regression to determine PD-L1 receptor density per cell and to determine the Kd of ¹¹¹In-PD-L1.3.1.

human PD-L1 [2] = target: T1, human PD-L1; assay: saturation binding of ^111In-PD-L1.3.1 on cells, 4 h on ice, called Scatchard analysis in the filing; the cell line is not printed on the sheet (MDA-MB-231 used in the subsequent binding assays)
Procedure: as §1

human PD-L1 [3] = target: T1, human PD-L1; assay: competition on MDA-MB-231 cells, 4 h on ice: unlabeled PD-L1.3.1 (1-1000 pM) against 20 pM ^111In-PD-L1.3.1, gamma counter; unlabeled antibody, competition on MDA-MB-231 cells
Procedure: MDA-MB-231 cells were cultured to confluency in six-well plates. The 50% inhibitory concentration (IC₅ₒ) of PD-L1.3.1 blocking of ¹¹¹In-PD-L1.3.1 binding was determined by incubating the cells for 4 h on ice in 1 ml RPMI1640 0.5% BSA, containing 20 pM ¹¹¹In-PD-L1.3.1 (1 kBq) and increasing concentrations of unlabeled PD-L1.3.1 (1-1000 pM). After incubation, cells were washed with PBS and the cell-associated activity was measured in a gamma counter. The IC₅₀ was defined as the antibody concentration that was required to inhibit binding of the radio labeled antibody by 50%. IC₅₀ values were calculated using GraphPad Prism.

B1: ^111In-DTPA-PD-L1.3.1 (antibody, V domains shown)
VH: EVQLQQSGTELVKPGASVKLSCTTSGFNIQDTYMHWVKQRPEQGLEWIGWIDPANGNTKYDPKFQGKATIIADTSSNTAYLQLRGLTSEDTAVYYCARSGVSTAHFDYWGQGTTLTVSS
VL: QIVLSQSPAILSASPGEKVTMTCRASSSVSFMHWYQQKPGSSPKPWIYATSNLASGVPTRFSGSGSGTSYSLTLSRVEAEDAATYYCQQWSSYPRTFGGGTKLEIK
modifications: ITC-DTPA conjugate chelating ^111In; conjugated residues and chain not stated
Kd (human PD-L1 [1]): 0.97 nM | Kd (human PD-L1 [2]): 1 nM

B2: PD-L1.3.1 antibody (unlabeled) (antibody, V domains shown)
VH: B1 VH
VL: B1 VL
notes: also called unlabeled PD-L1.3.1
IC50 (human PD-L1 [3]): 0.15 nM
